Results published in PMC2878558 (The Journal of Biological Chemistry, 2010).

B1: VAMP7(1–118) (domain or fragment, human, UniProt P51809 1-118, looked up)
chain: MAILFAVVARGTTILAKHAWCGGNFLEVTEQILAKIPSENNKLTYSHGNYLFHYICQDRIVYLCITDDDFERSRAFNFLNEIKKRFQTTYGSRAQTALPYAMNSEFSSVLAAQLKHHS

Tests used:
VAMP7(1–118) = molecular target: B1; test: NMR titration
SEC-MALS = molecular target: the molecule itself; test: SEC-MALS

binding result (VAMP7(1–118))	Binder	stoichiometry N (SEC-MALS)
binds	VAMP7(119–180) (domain or fragment, human, UniProt P51809 119-180, looked up) ENKGLDKVMETQAQVDELKGIMVRNIDLVAQRGERLELLIDKTENLVDSSVTFKTTSRNLAR	
	B1	2
